The target in the experiment is T1, His-tagged OGT (human, UniProt O15294 1-1046).
T1 construct: OGT, human, full length; Vector pet28a; also called His-OGT; pet28a-OGT; source: E. coli, purified
T1 sequence (looked up): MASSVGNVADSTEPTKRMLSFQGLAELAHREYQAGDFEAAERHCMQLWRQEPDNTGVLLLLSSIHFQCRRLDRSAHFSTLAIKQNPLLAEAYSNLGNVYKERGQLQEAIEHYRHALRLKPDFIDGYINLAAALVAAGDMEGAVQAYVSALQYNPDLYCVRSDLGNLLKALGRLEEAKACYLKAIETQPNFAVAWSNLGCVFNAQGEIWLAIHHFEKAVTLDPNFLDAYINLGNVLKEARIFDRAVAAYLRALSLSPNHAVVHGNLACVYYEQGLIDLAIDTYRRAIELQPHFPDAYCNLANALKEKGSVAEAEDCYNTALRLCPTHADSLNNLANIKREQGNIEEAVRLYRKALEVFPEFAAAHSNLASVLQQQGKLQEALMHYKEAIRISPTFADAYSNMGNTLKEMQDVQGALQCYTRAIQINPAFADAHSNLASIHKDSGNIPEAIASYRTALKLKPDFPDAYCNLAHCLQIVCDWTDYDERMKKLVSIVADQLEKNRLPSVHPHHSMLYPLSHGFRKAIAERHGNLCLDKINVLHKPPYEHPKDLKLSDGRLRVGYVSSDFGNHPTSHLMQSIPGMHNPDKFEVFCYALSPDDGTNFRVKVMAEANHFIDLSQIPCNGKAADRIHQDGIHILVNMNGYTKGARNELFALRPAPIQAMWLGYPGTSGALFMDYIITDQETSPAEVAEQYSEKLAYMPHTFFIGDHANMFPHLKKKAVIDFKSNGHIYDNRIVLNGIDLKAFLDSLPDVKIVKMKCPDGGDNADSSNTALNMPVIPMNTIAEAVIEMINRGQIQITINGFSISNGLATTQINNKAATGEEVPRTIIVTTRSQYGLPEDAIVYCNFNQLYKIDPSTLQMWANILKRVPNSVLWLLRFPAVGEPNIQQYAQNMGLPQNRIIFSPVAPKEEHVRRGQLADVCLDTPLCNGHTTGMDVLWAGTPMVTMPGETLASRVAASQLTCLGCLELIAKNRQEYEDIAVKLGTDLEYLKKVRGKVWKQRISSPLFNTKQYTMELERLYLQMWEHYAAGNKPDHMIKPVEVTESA
The experiment is described as follows: pull-down; GST pull-down: His-tagged OGT incubated with wild-type GST-tagged FOXP1 or its mutant lacking AA 556–610, glutathione beads, immunoblot. The settings on record: both partners purified.

B1: GST-tagged FOXP1 (wild type, full length) (natural protein, human, UniProt Q9H334 1-677, looked up)
chain: MMQESGTETKSNGSAIQNGSGGSNHLLECGGLREGRSNGETPAVDIGAADLAHAQQQQQQALQVARQLLLQQQQQQQVSGLKSPKRNDKQPALQVPVSVAMMTPQVITPQQMQQILQQQVLSPQQLQVLLQQQQALMLQQQQLQEFYKKQQEQLQLQLLQQQHAGKQPKEQQQVATQQLAFQQQLLQMQQLQQQHLLSLQRQGLLTIQPGQPALPLQPLAQGMIPTELQQLWKEVTSAHTAEETTGNNHSSLDLTTTCVSSSAPSKTSLIMNPHASTNGQLSVHTPKRESLSHEEHPHSHPLYGHGVCKWPGCEAVCEDFQSFLKHLNSEHALDDRSTAQCRVQMQVVQQLELQLAKDKERLQAMMTHLHVKSTEPKAAPQPLNLVSSVTLSKSASEASPQSLPHTPTTPTAPLTPVTQGPSVITTTSMHTVGPIRRRYSDKYNVPISSADIAQNQEFYKNAEVRPPFTYASLIRQAILESPEKQLTLNEIYNWFTRMFAYFRRNAATWKNAVRHNLSLHKCFVRVENVKGAVWTVDEVEFQKRRPQKISGNPSLIKNMQSSHAYCTPLNAALQASMAENSIPLYTTASMGNPTLGNLASAIREELNGAMEHTNSNESDSSPGRSPMQAVHPVHVKEEPLDPEEAEGPLSLVTTANHSPDFDHDRDYEDEPVNEDME
notes: FOXP1, human, full length; Vector pGEX-4T-1; also called GST-FOXP1; pGEX-4T-1-FOXP1; source: E. coli, purified
Take B1: the binding result is recorded as “binds”.

For the origin of these results see paper PMC11729909, “FOXP1 phosphorylation antagonizes its O-GlcNAcylation in regulating ATR activation in response to replication stress” (The EMBO Journal, 2024).
